Details: Bos taurus; pH 7.2; 10 °C; Urea; Fluorescence; Sodium phosphate 25 mM; KCl 150 mM; whole UniProt chain shown

B1: Cellular tumor antigen p53 wild type, P67939 (protein)
chain: MEESQAELNVEPPLSQETFSDLWNLLPENNLLSSELSAPVDDLLPYTDVATWLDECPNEAPQMPEPSAPAAPPPATPAPATSWPLSSFVPSQKTYPGNYGFRLGFLQSGTAKSVTCTYSPSLNKLFCQLAKTCPVQLWVDSPPPPGTRVRAMAIYKKLEHMTEVVRRCPHHERSSDYSDGLAPPQHLIRVEGNLRAEYLDDRNTFRHSVVVPYESPEIDSECTTIHYNFMCNSSCMGGMNRRPILTIITLEDSCGNLLGRNSFEVRVCACPGRDRRTEEENLRKKGQSCPEPPPRSTKRALPTNTSSSPQPKKKPLDGEYFTLQIRGFKRYEMFRELNDALELKDALDGREPGESRAHSSHLKSKKRPSPSCHKKPMLKREGPDSD
- denaturant midpoint (higher = more stable): 5.21 M
